Experimental data: the supplement of paper PMC7877785
± gives the uncertainty stated by the source.

Assay: self-splicing fitness, log relative to wild type (ln ratio); higher = more splicing; Tetrahymena group I intron in knt gene, E. coli kanamycin selection, DiMSum; sequences stand for … in CUCUCU…GGAGGGAAAAGUUAUCAGGCAUGCACCUGGUAGCUAGUCUUUAAACCAAUAGAUUGCAUCGGUUUAAAAGGCAAGACCGUCAAAUUGCGGGAAAGGGGUCAACAGCCGUUCAGUACCAAGUCUCAGGGGAAACUUUGAGAUGGCCUUGCAAAGGGUAUGGUAAUAAGCUGACGGACAUGGUCCUAACCACGCAGCCAAGUCCUAAGUCAACAGAUCUUCUGUUGAUAUGGAUGCAGUUCACAGACUAAAUGUCGGUCGGGGAAGAUGUAUUCUUCUCAUAAGAUAUAGUCGGACCUCUCCUUAAUGGGAGCUAGCGGAUGAAGUGAUGCAACACUGGAGCCGCUGGGAACUAAUUUGUAUGCGAAAGUAUAUUGAUUAGUUUUGGAGUACUCGUGGUCG
Summary of the method: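 Fitness was computed with DiMSum as the error-weighted combination of replicate fold changes, kanamycin versus none, each normalised to wild type. The library randomised all eight intron nucleotides of the P1ex region, with the intron placed in the knt kanamycin-resistance gene on pET-22b(+) in E. coli BL21(DE3). Six replicate transformations were grown overnight at 37°C or 30°C on LB agar with or without 25 μg/mL kanamycin, plus 100 μg/mL carbenicillin, 50 μM IPTG and 0.2% rhamnose. Pooled colonies were amplicon-sequenced on an Illumina HiSeq 2500.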

Sequence	self-splicing fitness (ln) (30 °C)	self-splicing fitness (ln) (37 °C)
CCGGAGCAAUAUUACGCAAC	-1.66 ± 0.4	-2.92 ± 0.47
UCAAAGCAAUAUUACGCUGG	-3.55 ± 0.37	-2.28 ± 0.33
UACGAGCAAUAUUACGGUAU	-3.12 ± 0.26	-3.28 ± 0.3
GCCUAGCAAUAUUACGCUUU	-0.497 ± 0.097	-0.0274 ± 0.12
CUAGAGCAAUAUUACGGAAC	-1.38 ± 0.17	
UGCUAGCAAUAUUACGCUUU	-2.16 ± 0.14	-2.22 ± 0.19
UACAAGCAAUAUUACGCUCU	-1.36 ± 0.087	-0.0585 ± 0.11
GCAUAGCAAUAUUACGCUUU	-3.17 ± 0.2	-2.88 ± 0.18
UGUGAGCAAUAUUACGACUA	-0.569 ± 0.2	-1.07 ± 0.19
CCUCAGCAAUAUUACGCUUG	-4.31 ± 0.37	-2.52 ± 0.23
AGUCAGCAAUAUUACGCCGA	-1.92 ± 0.25	-1.92 ± 0.3
AUGCAGCAAUAUUACGAGCG	-0.487 ± 0.063	-0.0426 ± 0.084
GGAAAGCAAUAUUACGUCAC	-2.13 ± 0.22	-1.81 ± 0.32
CAAGAGCAAUAUUACGUACA	-3.1 ± 0.35	-1.89 ± 0.26
GGGAAGCAAUAUUACGAAGU	-2.43 ± 0.29	-1.83 ± 0.35
GUACAGCAAUAUUACGAAGG		-0.639 ± 0.25
AUCGAGCAAUAUUACGACAC	-2.4 ± 0.29	-0.469 ± 0.22
CUCAAGCAAUAUUACGCCGG	-2.92 ± 0.38	-1.53 ± 0.31
UCGCAGCAAUAUUACGAACA	-1.65 ± 0.12	0.339 ± 0.13
GACGAGCAAUAUUACGUUGC	-4.31 ± 0.3	-2.48 ± 0.24
AUCAAGCAAUAUUACGGUUU	-1.29 ± 0.073	-0.35 ± 0.075
UCGUAGCAAUAUUACGCAUA	-1.57 ± 0.16	-1.34 ± 0.21
ACGGAGCAAUAUUACGGUGA	-3.69 ± 0.23	-1.55 ± 0.21
CACUAGCAAUAUUACGAUGG	-0.786 ± 0.062	-0.324 ± 0.084
CAUCAGCAAUAUUACGGCGG	-0.364 ± 0.071	0.3 ± 0.12

Sequence	self-splicing fitness (ln) (30 °C)	self-splicing fitness (ln) (37 °C)
AUGCAGCAAUAUUACGCUAC	-3.31 ± 0.21	-2.38 ± 0.23
ACUAAGCAAUAUUACGGCCC	-0.668 ± 0.18	-0.484 ± 0.27
ACAAAGCAAUAUUACGGCUC	-0.452 ± 0.078	-0.217 ± 0.12
GGCAAGCAAUAUUACGACUC	-0.319 ± 0.15	0.265 ± 0.17
AGUAAGCAAUAUUACGAAAU	-3.49 ± 0.21	-2.18 ± 0.17
UCACAGCAAUAUUACGUGGC	-3.08 ± 0.18	-2.83 ± 0.26
CAAAAGCAAUAUUACGCUCU	-1.6 ± 0.12	-1.63 ± 0.16
UCAUAGCAAUAUUACGAUCG	-0.885 ± 0.09	-0.426 ± 0.12
UGAAAGCAAUAUUACGACCG	-0.0402 ± 0.16	0.0392 ± 0.2
AUCCAGCAAUAUUACGAAAU	-0.769 ± 0.084	-0.546 ± 0.11
GCGGAGCAAUAUUACGCCUA	-2.53 ± 0.46	
AUCGAGCAAUAUUACGCCCA	-1.77 ± 0.24	-1.37 ± 0.3
CCGGAGCAAUAUUACGUUUU	-3.67 ± 0.3	-2.6 ± 0.38
UGUGAGCAAUAUUACGAGAU	-3.75 ± 0.37	-2.53 ± 0.41
ACUCAGCAAUAUUACGCGUG	-1.35 ± 0.073	-0.547 ± 0.081
UCAGAGCAAUAUUACGAGUC	-3.39 ± 0.35	-3.09 ± 0.21
UCGAAGCAAUAUUACGAGUA	-2.08 ± 0.14	-0.398 ± 0.12
UGACAGCAAUAUUACGAAGA	-3.28 ± 0.27	-0.756 ± 0.16
UCUCAGCAAUAUUACGACUU	-1.63 ± 0.073	-1.75 ± 0.11
UUAGAGCAAUAUUACGGGCU	-2.53 ± 0.32	
AUUCAGCAAUAUUACGCCGA	0.0822 ± 0.39	-0.539 ± 0.39
GCAAAGCAAUAUUACGAACU	-0.569 ± 0.094	-0.26 ± 0.13
AAACAGCAAUAUUACGUAGC	-4.24 ± 0.16	-2.98 ± 0.18
CAGCAGCAAUAUUACGUUUU	-2.86 ± 0.1	-1.15 ± 0.11
UCUAAGCAAUAUUACGCCGU	-1.72 ± 0.12	-1.09 ± 0.19

Sequence	self-splicing fitness (ln) (30 °C)	self-splicing fitness (ln) (37 °C)
UUAAAGCAAUAUUACGGGUU	-3.04 ± 0.15	-1.46 ± 0.13
GGAUAGCAAUAUUACGGCGA	-0.101 ± 0.15	-0.302 ± 0.12
AAUCAGCAAUAUUACGCGAC	-1.17 ± 0.085	-1.96 ± 0.15
GGCGAGCAAUAUUACGUUUC	-2.07 ± 0.23	-1.99 ± 0.26
UCUUAGCAAUAUUACGCGUC	-4.03 ± 0.33	
GUCCAGCAAUAUUACGUAUG	-2.76 ± 0.1	-1.06 ± 0.11
UUCUAGCAAUAUUACGGAUG	-1.05 ± 0.098	-0.888 ± 0.13
UGGGAGCAAUAUUACGUGAC		-2.53 ± 0.44
GCAGAGCAAUAUUACGACGA	-2.64 ± 0.24	-0.208 ± 0.12
AGAAAGCAAUAUUACGAGUG	-2.27 ± 0.094	-1.96 ± 0.12
UGAGAGCAAUAUUACGUGAG	-2.43 ± 0.14	-1.83 ± 0.2
CCACAGCAAUAUUACGUAUU	-3.57 ± 0.15	-2.01 ± 0.14
UAUCAGCAAUAUUACGACAG	-0.385 ± 0.078	0.0531 ± 0.1
UGCAAGCAAUAUUACGAACU	-0.489 ± 0.14	0.0308 ± 0.12
UGUAAGCAAUAUUACGGUAG	-2.05 ± 0.12	-1.34 ± 0.13
GCUGAGCAAUAUUACGCUCA		-2.75 ± 0.48
GCAUAGCAAUAUUACGUUGG	-3.88 ± 0.22	-2.28 ± 0.18
CGGUAGCAAUAUUACGGUAC		-1.22 ± 0.42
UUGGAGCAAUAUUACGAUCG	-2.53 ± 0.24	-1.66 ± 0.2
CUGUAGCAAUAUUACGUUCU	-3.72 ± 0.34	-2.94 ± 0.4
GCCGAGCAAUAUUACGGAUU	-1.37 ± 0.08	-0.945 ± 0.092
CCGAAGCAAUAUUACGCACC	-2.46 ± 0.19	-2.25 ± 0.5
GCGGAGCAAUAUUACGGCUG	-2.93 ± 0.34	
CGCCAGCAAUAUUACGCUUA	-3.1 ± 0.21	-1.87 ± 0.17
GCUAAGCAAUAUUACGUGGU	-3.27 ± 0.19	-2.5 ± 0.18

Sequence	self-splicing fitness (ln) (30 °C)	self-splicing fitness (ln) (37 °C)
AUGCAGCAAUAUUACGUGUU	-4.05 ± 0.16	-2.66 ± 0.17
CUAUAGCAAUAUUACGGGUC	-3.19 ± 0.29	-2.05 ± 0.28
UCGAAGCAAUAUUACGAGAA	-1.94 ± 0.41	-1.23 ± 0.3
AUCGAGCAAUAUUACGACUC	-3.4 ± 0.3	-1.98 ± 0.27
AGUCAGCAAUAUUACGAACC	-0.519 ± 0.15	-0.0581 ± 0.16
GUAGAGCAAUAUUACGGUGA	-2.14 ± 0.13	-1.09 ± 0.2
UAAUAGCAAUAUUACGCGCC	-2.47 ± 0.34	-1.39 ± 0.41
AAUGAGCAAUAUUACGACUA	-2.47 ± 0.25	-0.177 ± 0.21
AGACAGCAAUAUUACGACAU	-0.107 ± 0.011	-0.0048 ± 0.032
UGGGAGCAAUAUUACGUUGG	-3.45 ± 0.22	-2.85 ± 0.26
ACGCAGCAAUAUUACGCUAA	-1.79 ± 0.08	-0.352 ± 0.081
UAAAAGCAAUAUUACGUUAA	-2.14 ± 0.15	-1.38 ± 0.13
UUUCAGCAAUAUUACGUGAU	-2.58 ± 0.13	-1.8 ± 0.18
CCAUAGCAAUAUUACGGUAA	-3.53 ± 0.33	-3.26 ± 0.35
GAGUAGCAAUAUUACGUGGU	-3.48 ± 0.25	-0.852 ± 0.29
CAGGAGCAAUAUUACGGGGC	-2.17 ± 0.23	
AAUCAGCAAUAUUACGGGAA	-1.37 ± 0.097	0.137 ± 0.078
CUCCAGCAAUAUUACGAUUC	-4.14 ± 0.18	-2.72 ± 0.19
CAAGAGCAAUAUUACGAGUC	-2.88 ± 0.28	-0.209 ± 0.28
CAAUAGCAAUAUUACGACCA		-1.81 ± 0.41
GACAAGCAAUAUUACGGUCA	-0.777 ± 0.13	-0.735 ± 0.12
CGGUAGCAAUAUUACGUUCC	-4.16 ± 0.33	-1.9 ± 0.26
CCACAGCAAUAUUACGCGCC	-3.03 ± 0.29	
CUUUAGCAAUAUUACGAAUG	0.423 ± 0.14	-0.306 ± 0.17
